Laboratory results from US20070259402.

Columns and labels:
[1] = target: precursor (proFIX) of FIX alone produced in the presence of PACE-SOL (BeneFIX®) (UniProt P00740)
[2] = test system: proFIX-Fc (FIX-Fc retaining the FIX propeptide; dimer or monomer form not given)

Chain of precursor (proFIX) of FIX alone produced in the presence of PACE-SOL (BeneFIX®) (P00740 whole entry, looked up): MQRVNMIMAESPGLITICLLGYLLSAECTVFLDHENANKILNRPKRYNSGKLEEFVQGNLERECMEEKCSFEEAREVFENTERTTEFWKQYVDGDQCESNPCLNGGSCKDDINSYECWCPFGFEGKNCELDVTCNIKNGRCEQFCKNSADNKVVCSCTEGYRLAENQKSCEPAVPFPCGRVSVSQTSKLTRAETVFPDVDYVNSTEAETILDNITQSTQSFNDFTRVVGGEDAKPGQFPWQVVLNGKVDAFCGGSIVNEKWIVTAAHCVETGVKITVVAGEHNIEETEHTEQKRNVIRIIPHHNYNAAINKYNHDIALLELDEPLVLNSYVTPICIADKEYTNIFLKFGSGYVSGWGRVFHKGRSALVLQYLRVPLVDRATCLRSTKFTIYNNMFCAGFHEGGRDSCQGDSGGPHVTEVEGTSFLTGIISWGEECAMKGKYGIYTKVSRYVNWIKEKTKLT

Substance: PACE-SOL (soluble form of human PACE, amino acids 1-715)
- peptide mapping (tryptic digest, LC/MS) for the propeptide indicator peptide (PIP) [1]: FIX alone produced in the presence of PACE-SOL (BeneFIX®) appeared identical to FIX-Fc monomer produced with PC5 (FIG. 13), displaying no detectable PIP
- Propeptide Processing (Western blotting), CHO, transient transfection [2]: processes
